{"source": "paper PMC11180338", "about": "(The Journal of Biological Chemistry, 2024)", "key": {"[1]": {"molecular_target": "nucleocapsid protein (N) 175-245 (UniProt P0DTC9)", "conditions": "sites S188"}, "[2]": {"molecular_target": "nucleocapsid protein (N) 175-245 (UniProt P0DTC9)", "conditions": "sites S188", "remark": "listed apart in the source"}, "[3]": {"molecular_target": "nucleocapsid protein (N) 175-365 (UniProt P0DTC9)", "conditions": "sites S188"}, "AUC": {"molecular_target": "the molecule itself", "experiment": "AUC"}}, "note": "Where two headings read alike, the source gives them in different places."}
{"molecule": "nucleocapsid protein (N) 175-245 (from UniProt P0DTC9)", "values": [{"measurement": "binding against the reference", "setting": "[1]", "result": "weaker"}, {"measurement": "binding against the reference", "setting": "[2]", "result": "weaker"}]}
{"molecule": "nucleocapsid protein (N) 175-365 (from UniProt P0DTC9)", "values": [{"measurement": "binding against the reference", "setting": "[3]", "result": "same"}]}
{"molecule": "WT-N_(175–245) GFP, GFP-tagged N_(175–245) (domain or fragment) GSRGGSQASSRSSSRSRNSSRNSTPGSSRGTSPARMAGNGGDAALALLLLDRLNQLESKMSGKGQQQQGQT", "values": [{"measurement": "Kd", "setting": "AUC", "result": 77, "unit": "µM"}, {"measurement": "stoichiometry N", "setting": "AUC", "result": 2}]}
{"molecule": "pSer188-N_(175–245) GFP (domain or fragment, phosphoserine at 188) GSRGGSQASSRSSSRSRNSSRNSTPGSSRGTSPARMAGNGGDAALALLLLDRLNQLESKMSGKGQQQQGQT", "values": [{"measurement": "Kd", "setting": "AUC", "result": 235, "unit": "µM"}]}
